Blank lines part the entries; values can stand above or below the molecule they belong to.
Assays:
[1] = tested on: GFP-14-3-3β and its binding proteins; test: GFP-14-3-3β co-IP with LC-MS/MS label-free quantification, untreated versus PP1c-treated; set-up: species or system human; conditions: PP1 vs untreated; LFQ intensities, replicates 1-3
GFP-14-3-3β = GFP-14-3-3β co-IP with LC-MS/MS, untreated GFP-14-3-3β versus GFP control (14-3-3 interactome); format: binding, human; conditions: untreated vs GFP; LFQ intensities, replicates 1-3

B1: MAP3K2 (protein, UniProt Q9Y2U5 1-619, looked up)
Mitogen-activated protein …: MDDQQALNSIMQDLAVLHKASRPALSLQETRKAKSSSPKKQNDVRVKFEHRGEKRILQFPRPVKLEDLRSKAKIAFGQSMDLHYTNNELVIPLTTQDDLDKAVELLDRSIHMKSLKILLVINGSTQATNLEPLPSLEDLDNTVFGAERKKRLSIIGPTSRDRSSPPPGYIPDELHQVARNGSFTSINSEGEFIPESMDQMLDPLSLSSPENSGSGSCPSLDSPLDGESYPKSRMPRAQSYPDNHQEFSDYDNPIFEKFGKGGTYPRRYHVSYHHQEYNDGRKTFPRARRTQGTSLRSPVSFSPTDHSLSTSSGSSIFTPEYDDSRIRRRGSDIDNPTLTVMDISPPSRSPRAPTNWRLGKLLGQGAFGRVYLCYDVDTGRELAVKQVQFDPDSPETSKEVNALECEIQLLKNLLHERIVQYYGCLRDPQEKTLSIFMEYMPGGSIKDQLKAYGALTENVTRKYTRQILEGVHYLHSNMIVHRDIKGANILRDSTGNVKLGDFGASKRLQTICLSGTGMKSVTGTPYWMSPEVISGEGYGRKADIWSVACTVVEMLTEKPPWAEFEAMAAIFKIATQPTNPKLPPHVSDYTRDFLKRIFVEAKLRPSADELLRHMFVHYH
Difference (log2), PP1 vs untreated [1]: -1.618 log2
Difference (log2), untreated vs GFP (GFP-14-3-3β): 6.201 log2

B3: CCT2 (protein, UniProt P78371 2-535, looked up)
T-complex protein 1 subunit …: ASLSLAPVNIFKAGADEERAETARLTSFIGAIAIGDLVKSTLGPKGMDKILLSSGRDASLMVTNDGATILKNIGVDNPAAKVLVDMSRVQDDEVGDGTTSVTVLAAELLREAESLIAKKIHPQTIIAGWREATKAAREALLSSAVDHGSDEVKFRQDLMNIAGTTLSSKLLTHHKDHFTKLAVEAVLRLKGSGNLEAIHIIKKLGGSLADSYLDEGFLLDKKIGVNQPKRIENAKILIANTGMDTDKIKIFGSRVRVDSTAKVAEIEHAEKEKMKEKVERILKHGINCFINRQLIYNYPEQLFGAAGVMAIEHADFAGVERLALVTGGEIASTFDHPELVKLGSCKLIEEVMIGEDKLIHFSGVALGEACTIVLRGATQQILDEAERSLHDALCVLAQTVKDSRTVYGGGCSEMLMAHAVTQLANRTPGKEAVAMESYAKALRMLPTIIADNAGYDSADLVAQLRAAHSEGNTTAGLDMREGTIGDMAILGITESFQVKRQVLLSAAEAAEVILRVDNIIKAAPRKRVPDHHPC
Difference (log2), PP1 vs untreated [1]: -1.71 log2
Difference (log2), untreated vs GFP (GFP-14-3-3β): 0.06414 log2

B5: MITF (protein, UniProt O75030 1-526, looked up)
Microphthalmia-associated …: MQSESGIVPDFEVGEEFHEEPKTYYELKSQPLKSSSSAEHPGASKPPISSSSMTSRILLRQQLMREQMQEQERREQQQKLQAAQFMQQRVPVSQTPAINVSVPTTLPSATQVPMEVLKVQTHLENPTKYHIQQAQRQQVKQYLSTTLANKHANQVLSLPCPNQPGDHVMPPVPGSSAPNSPMAMLTLNSNCEKEGFYKFEEQNRAESECPGMNTHSRASCMQMDDVIDDIISLESSYNEEILGLMDPALQMANTLPVSGNLIDLYGNQGLPPPGLTISNSCPANLPNIKRELTACIFPTESEARALAKERQKKDNHNLIERRRRFNINDRIKELGTLIPKSNDPDMRWNKGTILKASVDYIRKLQREQQRAKELENRQKKLEHANRHLLLRIQELEMQARAHGLSLIPSTGLCSPDLVNRIIKQEPVLENCSQDLLQHHADLTCTTTLDLTDGTITFNNNLGTGTEANQAYSVPTKMGSKLEDILMDDTLSPVGVTDPLLSSVSPGASKTSSRRSSMSMEETEHTC
Difference (log2), PP1 vs untreated [1]: -1.637 log2
Difference (log2), untreated vs GFP (GFP-14-3-3β): 4.611 log2

B6: MPRIP (protein, UniProt Q6WCQ1 2-1025, looked up)
Myosin phosphatase …: SAAKENPCRKFQANIFNKSKCQNCFKPRESHLLNDEDLTQAKPIYGGWLLLAPDGTDFDNPVHRSRKWQRRFFILYEHGLLRYALDEMPTTLPQGTINMNQCTDVVDGEGRTGQKFSLCILTPEKEHFIRAETKEIVSGWLEMLMVYPRTNKQNQKKKRKVEPPTPQEPGPAKVAVTSSSSSSSSSSSIPSAEKVPTTKSTLWQEEMRTKDQPDGSSLSPAQSPSQSQPPAASSLREPGLESKEEESAMSSDRMDCGRKVRVESGYFSLEKTKQDLKAEEQQLPPPLSPPSPSTPNHRRSQVIEKFEALDIEKAEHMETNAVGPSPSSDTRQGRSEKRAFPRKRDFTNEAPPAPLPDASASPLSPHRRAKSLDRRSTEPSVTPDLLNFKKGWLTKQYEDGQWKKHWFVLADQSLRYYRDSVAEEAADLDGEIDLSACYDVTEYPVQRNYGFQIHTKEGEFTLSAMTSGIRRNWIQTIMKHVHPTTAPDVTSSLPEEKNKSSCSFETCPRPTEKQEAELGEPDPEQKRSRARERRREGRSKTFDWAEFRPIQQALAQERVGGVGPADTHEPLRPEAEPGELERERARRREERRKRFGMLDATDGPGTEDAALRMEVDRSPGLPMSDLKTHNVHVEIEQRWHQVETTPLREEKQVPIAPVHLSSEDGGDRLSTHELTSLLEKELEQSQKEASDLLEQNRLLQDQLRVALGREQSAREGYVLQATCERGFAAMEETHQKKIEDLQRQHQRELEKLREEKDRLLAEETAATISAIEAMKNAHREEMERELEKSQRSQISSVNSDVEALRRQYLEELQSVQRELEVLSEQYSQKCLENAHLAQALEAERQALRQCQRENQELNAHNQELNNRLAAEITRLRTLLTGDGGGEATGSPLAQGKDAYELEVLLRVKESEIQYLKQEISSLKDELQTALRDKKYASDKYKDIYTELSIAKAKADCDISRLKEQLKAATEALGEKSPDSATVSGYDIMKSKSNPDFLKKDRSCVTRQLRNIRSKSVIEQVSWDT
Difference (log2), PP1 vs untreated [1]: -1.951 log2
Difference (log2), untreated vs GFP (GFP-14-3-3β): 1.085 log2

B7: KIF5B (protein, UniProt P33176 2-963, looked up)
Kinesin-1 heavy chain: ADLAECNIKVMCRFRPLNESEVNRGDKYIAKFQGEDTVVIASKPYAFDRVFQSSTSQEQVYNDCAKKIVKDVLEGYNGTIFAYGQTSSGKTHTMEGKLHDPEGMGIIPRIVQDIFNYIYSMDENLEFHIKVSYFEIYLDKIRDLLDVSKTNLSVHEDKNRVPYVKGCTERFVCSPDEVMDTIDEGKSNRHVAVTNMNEHSSRSHSIFLINVKQENTQTEQKLSGKLYLVDLAGSEKVSKTGAEGAVLDEAKNINKSLSALGNVISALAEGSTYVPYRDSKMTRILQDSLGGNCRTTIVICCSPSSYNESETKSTLLFGQRAKTIKNTVCVNVELTAEQWKKKYEKEKEKNKILRNTIQWLENELNRWRNGETVPIDEQFDKEKANLEAFTVDKDITLTNDKPATAIGVIGNFTDAERRKCEEEIAKLYKQLDDKDEEINQQSQLVEKLKTQMLDQEELLASTRRDQDNMQAELNRLQAENDASKEEVKEVLQALEELAVNYDQKSQEVEDKTKEYELLSDELNQKSATLASIDAELQKLKEMTNHQKKRAAEMMASLLKDLAEIGIAVGNNDVKQPEGTGMIDEEFTVARLYISKMKSEVKTMVKRCKQLESTQTESNKKMEENEKELAACQLRISQHEAKIKSLTEYLQNVEQKKRQLEESVDALSEELVQLRAQEKVHEMEKEHLNKVQTANEVKQAVEQQIQSHRETHQKQISSLRDEVEAKAKLITDLQDQNQKMMLEQERLRVEHEKLKATDQEKSRKLHELTVMQDRREQARQDLKGLEETVAKELQTLHNLRKLFVQDLATRVKKSAEIDSDDTGGSAAQKQKISFLENNLEQLTKVHKQLVRDNADLRCELPKLEKRLRATAERVKALESALKEAKENASRDRKRYQQEVDRIKEAVRSKNMARRGHSAQIAKPIRPGQHPAASPTHPSAIRGGGAFVQNSQPVAVRGGGGKQV
Difference (log2), PP1 vs untreated [1]: -1.944 log2
Difference (log2), untreated vs GFP (GFP-14-3-3β): 3.573 log2

The next lines start with results.

Difference (log2), PP1 vs untreated [1]: -1.93 log2
B2: PPP1R12A (protein, UniProt O14974 1-1030, looked up)
Protein phosphatase 1 …: MKMADAKQKRNEQLKRWIGSETDLEPPVVKRQKTKVKFDDGAVFLAACSSGDTDEVLKLLHRGADINYANVDGLTALHQACIDDNVDMVKFLVENGANINQPDNEGWIPLHAAASCGYLDIAEFLIGQGAHVGAVNSEGDTPLDIAEEEAMEELLQNEVNRQGVDIEAARKEEERIMLRDARQWLNSGHINDVRHAKSGGTALHVAAAKGYTEVLKLLIQAGYDVNIKDYDGWTPLHAAAHWGKEEACRILVDNLCDMEMVNKVGQTAFDVADEDILGYLEELQKKQNLLHSEKRDKKSPLIESTANMDNNQSQKTFKNKETLIIEPEKNASRIESLEQEKVDEEEEGKKDESSCSSEEDEEDDSESEAETDKTKPLASVTNANTSSTQAAPVAVTTPTVSSGQATPTSPIKKFPTTATKISPKEEERKDESPATWRLGLRKTGSYGALAEITASKEGQKEKDTAGVTRSASSPRLSSSLDNKEKEKDSKGTRLAYVAPTIPRRLASTSDIEEKENRDSSSLRTSSSYTRRKWEDDLKKNSSVNEGSTYHKSCSFGRRQDDLISSSVPSTTSTPTVTSAAGLQKSLLSSTSTTTKITTGSSSAGTQSSTSNRLWAEDSTEKEKDSVPTAVTIPVAPTVVNAAASTTTLTTTTAGTVSSTTEVRERRRSYLTPVRDEESESQRKARSRQARQSRRSTQGVTLTDLQEAEKTIGRSRSTRTREQENEEKEKEEKEKQDKEKQEEKKESETSREDEYKQKYSRTYDETYQRYRPVSTSSSTTPSSSLSTMSSSLYASSQLNRPNSLVGITSAYSRGITKENEREGEKREEEKEGEDKSQPKSIRERRRPREKRRSTGVSFWTQDSDENEQEQQSDTEEGSNKKETQTDSISRYETSSTSAGDRYDSLLGRSGSYSYLEERKPYSSRLEKDDSTDFKKLYEQILAENEKLKAQLHDTNMELTDLKLQLEKATQRQERFADRSLLEMEKRERRALERRISEMEEELKMLPDLKADNQRLKDENGALIRVISKLSK
Difference (log2), untreated vs GFP (GFP-14-3-3β): 2.126 log2

Difference (log2), PP1 vs untreated [1]: -1.815 log2
B4: RHPN2 (protein, UniProt Q8IUC4 1-686, looked up)
Rhophilin-2: MTDALLPAAPQPLEKENDGYFRKGCNPLAQTGRSKLQNQRAALNQQILKAVRMRTGAENLLKVATNSKVREQVRLELSFVNSDLQMLKEELEGLNISVGVYQNTEEAFTIPLIPLGLKETKDVDFAVVLKDFILEHYSEDGYLYEDEIADLMDLRQACRTPSRDEAGVELLMTYFIQLGFVESRFFPPTRQMGLLFTWYDSLTGVPVSQQNLLLEKASVLFNTGALYTQIGTRCDRQTQAGLESAIDAFQRAAGVLNYLKDTFTHTPSYDMSPAMLSVLVKMMLAQAQESVFEKISLPGIRNEFFMLVKVAQEAAKVGEVYQQLHAAMSQAPVKENIPYSWASLACVKAHHYAALAHYFTAILLIDHQVKPGTDLDHQEKCLSQLYDHMPEGLTPLATLKNDQQRRQLGKSHLRRAMAHHEESVREASLCKKLRSIEVLQKVLCAAQERSRLTYAQHQEEDDLLNLIDAPSVVAKTEQEVDIILPQFSKLTVTDFFQKLGPLSVFSANKRWTPPRSIRFTAEEGDLGFTLRGNAPVQVHFLDPYCSASVAGAREGDYIVSIQLVDCKWLTLSEVMKLLKSFGEDEIEMKVVSLLDSTSSMHNKSATYSVGMQKTYSMICLAIDDDDKTDKTKKISKKLSFLSWGTNKNRQKSASTLCLPSVGAARPQVKKKLPSPFSLLNSDSSWY
Difference (log2), untreated vs GFP (GFP-14-3-3β): 5.43 log2

— PMC7367873, “Dissecting the sequence determinants for dephosphorylation by the catalytic subunits of phosphatases PP1 and PP2A” (Nature Communications, 2020)
